According to PMC3173232 (The Journal of Biological Chemistry, 2011):

B1: XLF(1–224) (domain or fragment)
chain: MEELEQGLLMQPWAWLQLAENSLLAKVFITKQGYALLVSDLQQVWHEQVDTSVVSQRAKELNKRLTAPPAAFLCHLDNLLRPLLKDAAHPSEATFSCDCVADALILRVRSELSGLPFYWNFHCMLASPSLVSQHLIRPLMGMSLALQCQVRELATLLHMKDLEIQDYQESGATLIRDRLKTEPFEENSFLEQFMIEKLPEACSIGDGKPFVMNLQDLYMAVTTQ
B2: XRCC4(1–140) (domain or fragment)
chain: MERKISRIHLVSEPSITHFLQVSWEKTLESGFVITLTDGHSAWTGTVSESEISQEADDMAMEKGKYVGELRKALLSGAGPADVYTFNFSKESCYFFFEKNLKDVSFRLGSFNLEKVENPAEVIRELICYCLDTIAENQAK

What was measured:
crystal structure = target: the molecule itself; assay: crystal structure
full-length XLF (XLF^FL) = full-length XLF (XLF^FL) (human, UniProt Q9H9Q4 1-299); assay: SEC

Binder	binding result (crystal structure)	binding result (full-length XLF (XLF^FL))
B1	binds	–
B2	–	binds
